Results as given in US20240368263A1 (PROMETHEUS BIOSCIENCES, published 2024).
Changes are numbered by the printed parent chain. Names and notes keep the numbering of the source. Read-outs that look alike come from different tables or passages of the source.

Assays:
[1] = target: T1, human TL1A (endogenous, human whole blood assay) (human, UniProt O95150 1-251, limits assumed); assay: cell-based or functional assay
T1 sequence (looked up): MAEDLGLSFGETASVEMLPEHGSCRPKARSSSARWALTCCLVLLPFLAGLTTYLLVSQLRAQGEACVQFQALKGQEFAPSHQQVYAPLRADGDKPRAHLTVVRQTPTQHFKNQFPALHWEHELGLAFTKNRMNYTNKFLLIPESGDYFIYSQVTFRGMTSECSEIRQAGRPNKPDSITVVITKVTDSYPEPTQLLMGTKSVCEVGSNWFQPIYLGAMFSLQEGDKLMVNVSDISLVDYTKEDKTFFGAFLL

[2] = target: T2, cynomolgus TL1A (endogenous, cynomolgus whole blood) (cynomolgus monkey, UniProt G7PRK8 1-251); assay: cell-based or functional assay
T2 sequence: T1 sequence (looked up) with R34C, L47V, F69L, A71D, F110L, I149V

[3] = target: T1, human TL1A (endogenous, human whole …); assay: cell-based or functional assay; remark: listed apart in the source
[4] = target: T1, human TL1A (endogenous, human whole …); assay: cell-based or functional assay; remark: listed apart in the source
[5] = target: T3, human TL1A (Fitzgerald, Prod. #30R-AT070) (human, UniProt O95150 72-251, limits assumed, biotinylated with EZ-Link Sulfo-NHS-LC-Biotin where used as soluble antigen); assay: capture lift hit at 200 pM b-TL1A, unmutated sequence
T3 construct: also called TNFSF15; biotinylated human TL1A
T3 sequence (looked up): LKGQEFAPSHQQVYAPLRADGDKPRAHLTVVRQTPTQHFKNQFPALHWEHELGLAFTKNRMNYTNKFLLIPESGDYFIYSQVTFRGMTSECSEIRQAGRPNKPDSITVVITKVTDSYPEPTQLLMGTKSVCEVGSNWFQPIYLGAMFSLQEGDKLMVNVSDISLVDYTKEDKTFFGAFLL

[6] = target: T3, human TL1A (Fitzgerald, Prod. …); assay: ELISA

B1: clone 23, modified IgG1 / kappa (antibody)
heavy: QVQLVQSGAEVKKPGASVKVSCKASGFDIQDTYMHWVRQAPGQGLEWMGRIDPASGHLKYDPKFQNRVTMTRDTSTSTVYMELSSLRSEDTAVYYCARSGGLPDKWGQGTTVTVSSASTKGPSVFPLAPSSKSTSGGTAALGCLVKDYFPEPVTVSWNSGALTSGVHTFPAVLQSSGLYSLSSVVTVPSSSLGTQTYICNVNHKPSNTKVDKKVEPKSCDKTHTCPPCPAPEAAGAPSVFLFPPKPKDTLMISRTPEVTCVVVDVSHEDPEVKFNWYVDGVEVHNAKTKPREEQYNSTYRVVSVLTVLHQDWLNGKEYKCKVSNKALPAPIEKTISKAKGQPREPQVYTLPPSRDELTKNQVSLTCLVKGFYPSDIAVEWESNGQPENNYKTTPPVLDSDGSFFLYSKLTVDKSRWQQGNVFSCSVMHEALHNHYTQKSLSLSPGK
light: EIVLTQSPGTLSLSPGERATLSCRASSSVSYMYWYQQKPGQAPRLLIYATSNLASGIPDRFSGSGSGTDFTLTISRLEPEDFAVYYCQQWEGNPRTFGGGTKLEIKRTVAAPSVFIFPPSDEQLKSGTASVVCLLNNFYPREAKVQWKVDNALQSGNSQESVTEQDSKDSTYSLSSTLTLSKADYEKHKVYACEVTHQGLSSPVTKSFNRGEC
- IC50, inhibition of IFN-γ production, human whole blood assay [1]: 0.41 nM
- Potency (IC50, nM), cynomolgus whole blood assay, mean [2]: 0.72 nM
- Potency (IC50, nM), human whole blood assay, mean [3]: 0.64 nM

B2: clone 14, IgG2 / kappa (antibody)
heavy: QVQLVQSGAEVKKPGASVKVSCKASGFDIQDTYMHWVRQAPGQGLEWMGRIDPASGHIKYDPKFQKRVTMTRDTSTSTVYMELSSLRSEDTAVYYCARSGGLPDMWGQGTTVTVSSASTKGPSVFPLAPCSRSTSESTAALGCLVKDYFPEPVTVSWNSGALTSGVHTFPAVLQSSGLYSLSSVVTVPSSNFGTQTYTCNVDHKPSNTKVDKTVERKCCVECPPCPAPPVAGPSVFLFPPKPKDTLMISRTPEVTCVVVDVSHEDPEVQFNWYVDGVEVHNAKTKPREEQFNSTFRVVSVLTVVHQDWLNGKEYKCKVSNKGLPAPIEKTISKTKGQPREPQVYTLPPSREEMTKNQVSLTCLVKGFYPSDIAVEWESNGQPENNYKTTPPMLDSDGSFFLYSKLTVDKSRWQQGNVFSCSVMHEALHNHYTQKSLSLSPGK
light: B1 light with E91Q
- IC50, inhibition of IFN-γ production, human whole blood assay [1]: 0.35 nM

B3: clone 34, modified IgG1 / kappa (antibody)
heavy: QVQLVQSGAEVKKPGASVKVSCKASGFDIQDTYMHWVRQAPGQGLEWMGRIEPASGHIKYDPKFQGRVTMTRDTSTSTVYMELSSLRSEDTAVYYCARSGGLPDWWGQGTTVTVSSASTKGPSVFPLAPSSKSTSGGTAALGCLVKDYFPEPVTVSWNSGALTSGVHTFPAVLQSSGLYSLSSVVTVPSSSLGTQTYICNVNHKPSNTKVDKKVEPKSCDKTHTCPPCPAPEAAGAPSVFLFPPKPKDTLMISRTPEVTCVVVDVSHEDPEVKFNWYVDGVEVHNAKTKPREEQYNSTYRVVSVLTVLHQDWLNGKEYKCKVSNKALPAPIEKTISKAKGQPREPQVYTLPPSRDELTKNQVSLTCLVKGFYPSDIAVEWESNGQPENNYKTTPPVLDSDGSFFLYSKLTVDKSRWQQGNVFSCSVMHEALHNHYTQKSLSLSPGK
light: B1 light
- IC50, inhibition of IFN-γ production, human whole blood assay [1]: 0.18 nM
- Potency (IC50, nM), cynomolgus whole blood assay, mean [2]: 0.21 nM
- Potency (IC50, nM), human whole blood assay, mean [3]: 0.24 nM

B4: clone 14, modified IgG1 / kappa (antibody)
heavy: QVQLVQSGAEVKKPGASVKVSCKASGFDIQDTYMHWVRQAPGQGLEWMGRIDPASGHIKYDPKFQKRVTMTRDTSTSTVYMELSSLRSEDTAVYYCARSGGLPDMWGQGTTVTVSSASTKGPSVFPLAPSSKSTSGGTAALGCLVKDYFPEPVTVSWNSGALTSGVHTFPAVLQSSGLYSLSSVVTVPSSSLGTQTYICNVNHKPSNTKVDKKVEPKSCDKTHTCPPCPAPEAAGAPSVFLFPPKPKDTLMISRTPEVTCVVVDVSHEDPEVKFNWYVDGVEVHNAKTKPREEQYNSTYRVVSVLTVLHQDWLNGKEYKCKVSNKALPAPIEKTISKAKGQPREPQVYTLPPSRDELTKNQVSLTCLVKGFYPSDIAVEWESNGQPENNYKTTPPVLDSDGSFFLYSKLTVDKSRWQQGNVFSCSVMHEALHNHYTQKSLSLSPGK
light: B1 light with E91Q
- IC50, inhibition of IFN-γ production, human whole blood assay [1]: 0.19 nM
- Potency (IC50, nM), cynomolgus whole blood assay, mean [2]: 0.28 nM
- Potency (IC50, nM), human whole blood assay, mean [3]: 0.3 nM

B5: clone 53, modified IgG1 / kappa (antibody, V domains shown)
VH: QVQLVQSGAEVKKPGASVKVSCKASGFDIQDTYMHWVRQAPGQGLEWMGRIEPASGHLKYDPKFQERVTMTRDTSTSTVYMELSSLRSEDTAVYYCARSGGLPDKWGQGTTVTVSS
VL: EIVLTQSPGTLSLSPGERATLSCRASSSVSYMYWYQQKPGQAPRLLIYATSNLASGIPDRFSGSGSGTDFTLTISRLEPEDFAVYYCQQWEGNPRTFGGGTKLEIKR
- fold greater potency towards human TL1A than cynomolgus TL1A, whole blood assays [4]: ~2 fold
- IC50, inhibition of IFN-γ production, human whole blood assay [1]: 0.39 nM
- Potency (IC50, nM), cynomolgus whole blood assay, mean [2]: 1.32 nM
- Potency (IC50, nM), human whole blood assay, mean [3]: 0.59 nM

B6: L8 (CDR graft) Fab (Fab, V domains shown)
VH: B5 VH with E52D, L58T, E66V, K105V
VL: EIVLTQSPGTLSLSPGERATLSCRASSSVSYMYWYQQKPGQAPRLLIYATSNLASGIPDRFSGSGSGTDFTLTISRLEPEDFAVYYCQQWSGNPRTFGGGTKLEIK
notes: Fab; also called CDR graft clone L8; CDR-grafted variant
- binding result [5]: binds

B7: H3-7 (V102M) Fab (Fab, V domains shown)
VH: B5 VH with E52D, L58T, E66V, K105M
VL: B6 VL
notes: Fab; also called 21-3 V102M heavy chain with 18-7 light chain
- binding result [6]: binds

B8: L3-4 (S92N) Fab (Fab, V domains shown)
VH: B5 VH with E52D, L58T, E66V, K105V
VL: B6 VL with S91N
notes: Fab; also called 18-7 S92N light chain with 21-3 heavy chain
- binding result [6]: binds

B9: L3-4 (S92E) Fab (Fab, V domains shown)
VH: B5 VH with E52D, L58T, E66V, K105V
VL: B6 VL with S91E
notes: Fab; also called 18-7 S92E light chain with 21-3 heavy chain
- binding result [6]: binds

B10: H3-7 (V102W) Fab (Fab, V domains shown)
VH: B5 VH with E52D, L58T, E66V, K105W
VL: B6 VL
notes: Fab; also called 21-3 V102W heavy chain with 18-7 light chain
- binding result [6]: binds

B11: 12835 (humanized 5C3D11) antibody, IgG format (antibody, V domains shown)
VH: B5 VH with V20L, E52D, L58T, E66V, R72T, A97S, K105V
VL: B6 VL with A19V, L21M, L45P, L46W, I57V, F70Y
- IC50, inhibition of IFN-γ production, human whole blood assay [4]: 9.28 nM

B12: L3-4 (S92D) Fab (Fab, V domains shown)
VH: B5 VH with E52D, L58T, E66V, K105V
VL: B6 VL with S91D
notes: Fab; also called 18-7 S92D light chain with 21-3 heavy chain
- binding result [6]: binds

B13: L3-4 (S92Q) Fab (Fab, V domains shown)
VH: B5 VH with E52D, L58T, E66V, K105V
VL: B6 VL with S91Q
notes: Fab; also called 18-7 S92Q light chain with 21-3 heavy chain
- binding result [6]: binds

B14: H3-7 (V102Q) Fab (Fab, V domains shown)
VH: B5 VH with E52D, L58T, E66V, K105Q
VL: B6 VL
notes: Fab; also called 21-3 V102Q heavy chain with 18-7 light chain
- binding result [6]: binds

B15: L3-4 (S92H) Fab (Fab, V domains shown)
VH: B5 VH with E52D, L58T, E66V, K105V
VL: B6 VL with S91H
notes: Fab; also called 18-7 S92H light chain with 21-3 heavy chain
- binding result [6]: binds

B16: H3-7 (V102K) Fab (Fab, V domains shown)
VH: B5 VH with E52D, L58T, E66V
VL: B6 VL
notes: Fab; also called 21-3 V102K heavy chain with 18-7 light chain
- binding result [6]: binds

B17: murine 5C3D11 monoclonal antibody (antibody, V domains shown)
VH: EVQLQQSGAELVKPGASVKLSCTASGFDIQDTYMHWVKQRPEQGLEWIGRIDPASGHTKYDPKFQVKATITTDTSSNTAYLQLSSLTSEDTAVYYCSRSGGLPDVWGAGTTVTVSS
VL: QIVLSQSPAILSASPGEKVTMTCRASSSVSYMYWYQQKPGSSPKPWIYATSNLASGVPDRFSGSGSGTSYSLTISRVEAEDAATYYCQQWSGNPRTFGGGTKLEIK
- IC50, inhibition of IFN-γ production, human whole blood assay [4]: 1.38 nM
- Potency (IC50, nM), cynomolgus whole blood assay, mean [2]: 0.18 nM

B18: 1D1 anti-TL1A antibody (antibody, V domains shown)
VH: QVQLVQSGAEVKKPGASVKVSCKASGYDFTYYGISWVRQAPGQGLEWMGWISTYNGNTHYARMLQGRVTMTTDTSTRTAYMELRSLRSDDTAVYYCARENYYGSGAYRGGMDVWGQGTTVTVSS
VL: EIVLTQSPATLSLSPGERATLSCRASQSVSSYLAWYQQKPGQAPRLLIYDASNRATGIPARFSGSGSGTDFTLTISSLEPEDFAVYYCQQRSNWPWTFGQGTKVEIK
- Potency (IC50, nM), human whole blood assay, mean [3]: 0.27 nM
